Measured values published in article doi:10.1101/2025.03.12.642832.

Molecular target: polyketide synthase 16 (Pks16) (D. discoideum (endogenous in AX2-214 cells)) (UniProt Q869W9)
Assay: cryo-EM structure

stoichiometry N: 2
Substance: polyketide synthase 16 (Pks16), Q869W9 1-2603
